Values joined by “and” are separate entries in the source; they are usually repeats but may differ in a detail not shown here. Equal entries are not always repeated. *1 amine or outer side, *2 acyl side, *3 side chain or, on linkers, in order; H or OH if unused. Bridges are numbered along the chain shown (N, C = ends). Roman numbers before positions name the chains, in order. Where no end group is shown, it is not given here. [ ]: non-standard residue; d: D form. d(γGlu) = O=C(O)[C@@H](CCC(=O)[*:2])N[*:1]; Bip = N[C@@H](Cc1ccc(-c2ccccc2)cc1)C(=O)O; PEG8 = NCCOCCOCCOCCOCCOCCOCCOCCOCCC(=O)O; NMeF = CN[C@@H](Cc1ccccc1)C(=O)O; Ahp(2) = CCCCC[C@H](N)C(=O)O

B1: I-27 (peptide)
peptide 1: ARXYHDGVLXXDC
peptide 2: DCAWHLGELVWCT
modifications: not fully specified; Cys2-Cys12 disulfide; N-terminus extended by D-Glu(side chain amide of 12-aminododecanoic acid)-PEG6-; X3 and X11 = Ahp ((S)-2-aminoheptanoic acid), X10 = Bph (4-biphenylylalanine); N-terminal -C(O)CH2- (from 2-bromoacetic acid) thioether-linked to S of Cys13; C-terminus carries PEG10 linker
B2: I-30 (peptide)
peptide 1: AR[Ahp(2)]YHDGVL[Bip][Ahp(2)]DC-{4‑aminobutanoic acid}
peptide 2: DCAWHLGELVWCT-NH2
modifications: disulfide II:2-II:12; also: thioether at chain A 13 to a chain's N-terminus
B3: I-33 (peptide)
peptide 1: ARXYHDGVLXXDC
peptide 2: DCAWHLGELVWCT
modifications: Cys2-Cys12 disulfide; N-terminus extended by PEG8-; X3 and X11 = Ahp ((S)-2-aminoheptanoic acid), X10 = Bph (4-biphenylylalanine); N-terminal -C(O)CH2- (from 2-bromoacetic acid) thioether-linked to S of Cys13; C-terminus carries PEG8 linker
B4: I-39 (peptide)
peptide 1: ARXYHDGVLXXDC
peptide 2: DCAWHLGELVWCT
modifications: Cys2-Cys12 disulfide; N-terminus extended by hydrazinecarbonyl (urea from Boc-NH-NH2 and CDI)-PEG6-; X3 and X11 = Ahp ((S)-2-aminoheptanoic acid), X10 = Bph (4-biphenylylalanine); N-terminal -C(O)CH2- (from 2-bromoacetic acid) thioether-linked to S of Cys13; C-terminus carries PEG10 linker
B5: A L H MeF V L P Bph V A V C (peptide)
peptide: ALH[NMeF]VLP[Bip]VAVC
modifications: not fully specified (N-terminus, bridges); printed as A L H MeF V L P Bph V A V C
notes: Alanine variant at position 10
B6: A A H MeF V L P Bph V W V C (peptide)
peptide: AAH[NMeF]VLP[Bip]VWVC
modifications: not fully specified (N-terminus, bridges); printed as A A H MeF V L P Bph V W V C
B7: A L H MeF V A P Bph V W V C (peptide)
peptide: ALH[NMeF]VAP[Bip]VWVC
modifications: not fully specified (N-terminus, bridges); printed as A L H MeF V A P Bph V W V C
notes: Alanine variant at position 6
B8: A L H MeF V L P Bph A W V C (peptide)
peptide: ALH[NMeF]VLP[Bip]AWVC
modifications: not fully specified (N-terminus, bridges); printed as A L H MeF V L P Bph A W V C
notes: Alanine variant at position 9
B9: A L H MeF V L A Bph V W V C (peptide)
peptide: ALH[NMeF]VLA[Bip]VWVC
modifications: not fully specified (N-terminus, bridges); printed as A L H MeF V L A Bph V W V C
notes: Alanine variant at position 7
B10: A L H MeF V L P Bph V W A C (peptide)
peptide: ALH[NMeF]VLP[Bip]VWAC
modifications: not fully specified (N-terminus, bridges); printed as A L H MeF V L P Bph V W A C
notes: Alanine variant at position 11
B11: A L H MeF A L P Bph V W V C (peptide)
peptide: ALH[NMeF]ALP[Bip]VWVC
modifications: not fully specified (N-terminus, bridges); printed as A L H MeF A L P Bph V W V C
notes: Alanine variant at position 5
B12: A L A MeF V L P Bph V W V C (peptide)
peptide: ALA[NMeF]VLP[Bip]VWVC
modifications: not fully specified (N-terminus, bridges); printed as A L A MeF V L P Bph V W V C
notes: Alanine variant at position 3
B13: I-28 (peptide)
peptide 1: {‑C(O)CH2‑}-AR[Ahp(2)]YHDGVL[Bip][Ahp(2)]DC-{PEG8-d(γGlu)-d(γGlu)-D‑Glu(side chain amide of 12-aminododecanoic acid)-d(γGlu)-d(γGlu)-Gly-Gly}
peptide 2: DCAWHLGELVWCT
modifications: disulfide II:2-II:12; also: chain 2 joined to the end of the chain 1 linker, thioether at chain A 13 to a chain's N-terminus
B14: A R Ahp A H D G V L Bph Ahp D C (peptide)
peptide: AR[Ahp(2)]AHDGVL[Bip][Ahp(2)]DC
modifications: not fully specified (N-terminus, bridges); printed as A R Ahp A H D G V L Bph Ahp D C
notes: Alanine variant at position 4
B15: A R Ahp Y H D G A L Bph Ahp D C (peptide)
peptide: AR[Ahp(2)]YHDGAL[Bip][Ahp(2)]DC
modifications: not fully specified (N-terminus, bridges); printed as A R Ahp Y H D G A L Bph Ahp D C
notes: Alanine variant at position 8
B16: A R Ahp Y H D G V A Bph Ahp D C (peptide)
peptide: AR[Ahp(2)]YHDGVA[Bip][Ahp(2)]DC
modifications: not fully specified (N-terminus, bridges); printed as A R Ahp Y H D G V A Bph Ahp D C
notes: Alanine variant at position 9
B17: A R Ahp Y A D G V L Bph Ahp D C (peptide)
peptide: AR[Ahp(2)]YADGVL[Bip][Ahp(2)]DC
modifications: not fully specified (N-terminus, bridges); printed as A R Ahp Y A D G V L Bph Ahp D C
notes: Alanine variant at position 5
B18: A R Ahp Y H A G V L Bph Ahp D C (peptide)
peptide: AR[Ahp(2)]YHAGVL[Bip][Ahp(2)]DC
modifications: not fully specified (N-terminus, bridges); printed as A R Ahp Y H A G V L Bph Ahp D C
notes: Alanine variant at position 6
B19: A R Ahp Y H D A V L Bph Ahp D C (peptide)
peptide: AR[Ahp(2)]YHDAVL[Bip][Ahp(2)]DC
modifications: not fully specified (N-terminus, bridges); printed as A R Ahp Y H D A V L Bph Ahp D C
notes: Alanine variant at position 7

For one assay, the target named is CD38 on Daudi cells (ATCC CCL-213) (human) (UniProt P28907). The assay is described as follows: cell-based or functional assay.
For B1, the % dead cells at 1 nM is 5.6% and 5.7%; the % dead cells at 3 nM is 8.2% and 7.7%; the % dead cells at 10 nM was 7.9% and 8.3%; the % dead cells at 30 nM was 9.4% and 10.3%. For the same molecule, the % dead cells at 100 nM was 10.3% and 9.1%; the EC50 (nM), killing of target cells amounted to 2.4 nM.
Turning to B2, the % dead cells at 1 nM is 14.3% and 14.7%; the % dead cells at 3 nM is 14.7% and 15.7%; the % dead cells at 10 nM was 14.1%; the % dead cells at 30 nM is 16.3% and 15.3%. The % dead cells at 100 nM is 17.1% and 18.1%; the % dead cells at 300 nM is 19% and 20.6%; the % dead cells at 3000 nM is 18.1% and 17.5%; the EC50 (nM), killing of target cells was 175 nM.
Take B3: the % dead cells at 10 nM was 23.4% and 22.3%; the % dead cells at 30 nM was 28.7% and 28.8%; the % dead cells at 100 nM was 32.8% and 31.3%; the % dead cells at 300 nM is 31.9% and 31.6%. In addition, the % dead cells at 1000 nM was 22.6% and 23.3%; the % dead cells at 3000 nM stood at 16.6%; the EC50 (nM), killing of target cells stood at 11 nM.
As for B4, the % dead cells at 0.03 nM is 11%; the % dead cells at 0.3 nM was 11.9% and 12.1%; the % dead cells at 1 nM was 15.7% and 16.5%; the % dead cells at 3 nM is 17.7% and 15.9%. Besides, the % dead cells at 10 nM is 22.4% and 21.4%; the % dead cells at 30 nM is 22.7% and 22.2%; the % dead cells at 100 nM is 23.4% and 25.4%; the % dead cells at 300 nM was 21.3% and 21.5%.

In another assay the target is T1, CD38 (human, UniProt P28907 43-300, limits assumed).
T1 construct: also called cluster of differentiation 38; cyclic ADP ribose hydrolase
The assay is described as follows: ELISA; larger values represent binding. In general terms: An ELISA detects its analyte on a solid surface through an enzyme-linked reagent.
On to B5, for which the “Binding Assay (ELISA signal)” value turned out to be 0.1.
The same measure, in the same setting: for ALHAVLP[Bip]VWVC (not fully specified (N-terminus, bridges); printed as A L H A V L P Bph V W V C, Alanine variant at position 4) [A L H A V L P Bph V W V C] the value was 0.1.
On the same count and under the same terms, for B6 the value was 0.84; for ALH[NMeF]VLPAVWVC (not fully specified; printed as A L H MeF V L P A V W V C, Alanine variant at position 8) [A L H MeF V L P A V W V C], 0.09.
For the molecule B7, the “Binding Assay (ELISA signal)” value was determined as 0.09.
The same measure, in the same setting: for B8 the value was 0.12.
On to B9, for which the “Binding Assay (ELISA signal)” value is 0.11.
Take B10: the “Binding Assay (ELISA signal)” value is 0.41.
The same measure, in the same setting: for B11 the value was 0.47; for B12, 0.37.

For another assay, the target named is T2, CD38 (human, UniProt P28907 1-300).
T2 construct: whole, on cells; also called cluster of differentiation 38; cyclic ADP ribose hydrolase
The assay is described as follows: ternary binding, flow cytometry: PE-labelled human IgG1k recruited to Daudi cells. The protocol: Various technologies can be utilized to assess and/or characterize recruitment of antibodies to target cells, e.g., cancer cells. One such assay is a ternary binding assay. An exemplary protocol is described herein. Compounds were diluted in DMSO (MP 191418) to 1000× the starting concentration used in the assay into a 96 well polypropylene plate (Corning 3357). They were then serially diluted in ½ log increments to generate 8-12 concentrations in DMSO (assay dependent). These DMSO stocks were then step diluted 1/100 into PBS (VWR Cat. #20012043). Step diluted compound range was then added into the polypropylene assay plate 1/10 the volume of the assay volume. […] The cells were then added into the polypropylene plate with the step diluted compounds and incubated at 37° C. for 30 min. At the end of the incubation, the cells were centrifuged and washed 2× with How buffer containing 0.5% Tween 20 (BP337-500). Samples were analyzed on a BD FacsCelesta. Mean fluorescence was analyzed using Graphpad Prism and curves were fit using log(inhibitor) vs. response—Variable slope (four parameters).
Molecule B1 came in with a half-maximal inhibitory concentration (IC50) of 6 nM.
Same read-out and setting: the figure for B3 is 9.3 nM.
Same read-out and setting: the figure for B4 is 3.3 nM.

The target of the next assay is T2, CD38. Put plainly: cell-based or functional assay.
As for B1, the “EC50 (nM), ADCC reporter cells” value amounted to 3 nM.
Turning to B2, the “EC50 (nM), ADCC reporter cells” value came to 12 nM.
As to B3, the “EC50 (nM), ADCC reporter cells” value came out at 4.3 nM.
For the molecule B13, the “EC50 (nM), ADCC reporter cells” value turned out to be 14 nM.
For B4, the “EC50 (nM), ADCC reporter cells” value was 0.61 nM.

The target of the next assay is CD38 on Daudi cells (human) (UniProt P28907). The assay is described as follows: ternary binding, flow cytometry: Daudi cells + PE human IgG1k.
For B1, the MFI at 0.03 nM is 2140 and 3880; the MFI at 0.1 nM was 2880 and 2430; the MFI at 0.3 nM was 3560 and 3190; the MFI at 1 nM is 3130 and 2450. In addition, the MFI at 3 nM was 3950 and 3970; the MFI at 10 nM was 3320 and 9770; the MFI at 30 nM is 7880 and 8230; the MFI at 100 nM is 11500 and 10800. For the same molecule, the MFI at 300 nM was 7180 and 11100; the MFI at 3000 nM is 3940 and 5160.
Take B3: the MFI at 1 nM was 3470 and 3690; the MFI at 3 nM was 3660 and 1850; the MFI at 10 nM was 21100 and 13600; the MFI at 30 nM turned out to be 23700. Further, the MFI at 100 nM was 31900 and 24200; the MFI at 300 nM was 24100 and 34300; the MFI at 1000 nM was 17400 and 22200; the MFI at 3000 nM was 28400 and 12400.
As to B4, the MFI at 0.03 nM was 5280 and 4130; the MFI at 0.1 nM was 6760 and 4610; the MFI at 1 nM was 4580 and 5160; the MFI at 3 nM was 6080 and 8740. In addition, the MFI at 10 nM was 5300 and 7840; the MFI at 30 nM was 9350 and 9460; the MFI at 100 nM is 16400 and 17300; the MFI at 300 nM is 12200 and 16900. Besides, the MFI at 1000 nM was 9710 and 12000; the MFI at 3000 nM is 10100 and 15000.

A further assay concerns the target T1, CD38. Put plainly: ELISA; larger values represent binding. The source holds these as a separate data set.
In the case of B14, the “Binding Assay (ELISA signal)” value amounted to 0.11.
For the molecule B15, the “Binding Assay (ELISA signal)” value was found to be 0.3.
For the molecule B16, the “Binding Assay (ELISA signal)” value worked out at 0.08.
Still for that read-out and setting: for B17 the value was 0.28; for B18, 0.93.
The same measure, in the same setting: for B19 the value was 1.49.

As a reminder, the IC50 is the concentration that gives 50% inhibition. A low value points to higher potency.

Source of the values: patent publication US20230028880A1, “CD38-BINDING AGENTS AND USES THEREOF” (Biohaven Therapeutics Ltd., priority 2019, published 2023).
